biological target: hs12a_human HSPA12A (UniProt O43301)
Chain of UniProt O43301 (O43301 whole entry): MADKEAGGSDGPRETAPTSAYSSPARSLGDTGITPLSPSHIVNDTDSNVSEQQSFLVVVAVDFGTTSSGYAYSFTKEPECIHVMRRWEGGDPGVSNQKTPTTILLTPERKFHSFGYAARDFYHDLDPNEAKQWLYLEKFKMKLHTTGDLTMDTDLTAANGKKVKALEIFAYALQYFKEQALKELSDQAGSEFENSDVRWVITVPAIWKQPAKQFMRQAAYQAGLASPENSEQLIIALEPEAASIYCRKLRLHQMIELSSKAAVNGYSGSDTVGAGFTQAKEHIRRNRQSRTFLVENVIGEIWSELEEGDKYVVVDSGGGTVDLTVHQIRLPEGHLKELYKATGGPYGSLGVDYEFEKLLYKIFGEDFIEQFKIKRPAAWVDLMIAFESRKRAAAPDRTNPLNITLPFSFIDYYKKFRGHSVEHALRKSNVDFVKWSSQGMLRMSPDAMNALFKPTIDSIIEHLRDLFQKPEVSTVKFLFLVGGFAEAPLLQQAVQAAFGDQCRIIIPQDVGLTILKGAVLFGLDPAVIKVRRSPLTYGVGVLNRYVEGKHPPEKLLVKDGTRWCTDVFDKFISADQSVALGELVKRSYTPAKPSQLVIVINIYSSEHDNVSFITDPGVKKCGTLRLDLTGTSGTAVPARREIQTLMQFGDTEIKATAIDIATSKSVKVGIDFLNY

Row | Substance | effect of a mutation on the interaction
1 | Sortilin-related receptor (Homo sapiens), Q92673 D2190A;D2191A | with no effect
2 | Sortilin-related receptor (Homo sapiens), Q92673 D2207A;D2208A | disrupting interaction strength
3 | Sortilin-related receptor (Homo sapiens), Q92673 T2203A;G2204A | with no effect

Continued, values first:

Row | effect of a mutation on the interaction | Substance
4 | with no effect | Sortilin-related receptor (Homo sapiens), Q92673 F2205A;S2206A
5 | disrupting interaction strength | Sortilin-related receptor (Homo sapiens), Q92673 E2194A;D2195A;D2196A;E2197A;D2198A
6 | with no effect | Sortilin-related receptor (Homo sapiens), Q92673 V2209A;P2210A
